Laboratory results from patent US20130156779A1 (GlaxoSmithKline, published 2013).
Numbering of substitutions follows the chain as printed.

B1: Humanized 1D9 RR antibody (H6L2) (antibody, human IgG1, V domains shown)
VH: QVQLVQSGAEVKKPGASVKVSCKASGYTFTSYWMHWVRQAPGQGLEWMGVIDPSDGYSHYNQKFKGKVTLTVDTSISTAYMELSRLRSDDTAVYYCAGGLAGTLDYWGQGTTVTVSS
VL: DIQMTQSPSSLSASVGDRVTITCRSSQSIVHSSGNTYLQWFQQKPGKAPKLLIYKVSNRFSGVPSRFSGSGSGTDFTLTISSLQPEDFAVYYCFQGSHVPWTFGQGTKLEIKRR
notes: Human IgG1; also called 1D9 H6L2 RR antibody; h1D9 RR wt
B2: 1D9 H6L0 RR antibody (antibody, V domains shown)
VH: B1 VH
VL: DIQMTQSPSSLSASVGDRVTITCRSSQSIVHSSGNTYLQWYQQKPGKAPKLLIYKVSNRFSGVPSRFSGSGSGTDFTLTISSLQPEDFAVYYCFQGSHVPWTFGQGTKLEIKR
notes: Humanized RR variant
B3: 1D9 H0L7 RR antibody (antibody, V domains shown)
VH: B1 VH with K67R, L70M, V72R, G98R
VL: DVVMTQSPLSLPVTLGQPASISCRSSQSIVHSSGNTYLQWFQQRPGQSPRRLISKVSNRFSGVPDRFSGSGSGTDFTLKISRVEAEDVGVYYCFQGSHVPWTFGQGTKLEIKR
notes: Humanized RR variant; captured by anti-human Fc
B4: 1D9 H2L2 RR antibody (antibody, V domains shown)
VH: B1 VH with K67R, L70M, V72R
VL: B2 VL with Y41F
notes: Humanized RR variant
B5: 1D9 H3L2 RR antibody (antibody, V domains shown)
VH: B1 VH with L70M, V72R, G98R
VL: B2 VL with Y41F
notes: Humanized RR variant
B6: 1D9 H6L5 RR antibody (antibody, V domains shown)
VH: B1 VH
VL: B2 VL with I2V, Q3L, Y41F, Y54S
notes: also called 1D9 116L5 RR antibody
B7: 1D9 H6L4 RR antibody (antibody, V domains shown)
VH: B1 VH
VL: B2 VL with Q3L
B8: 1D9 H6L9 RR antibody (antibody, V domains shown)
VH: B1 VH
VL: B3 VL with R50K, R51L
notes: Humanized RR variant
B9: 1D9 H3L6 RR antibody (antibody, V domains shown)
VH: B1 VH with L70M, V72R, G98R
VL: B3 VL with S54Y
B10: 1D9 H6L6 RR antibody (antibody, V domains shown)
VH: B1 VH
VL: B3 VL with S54Y
notes: To be rechecked
B11: 1D9 H6L3 RR antibody (antibody, V domains shown)
VH: B1 VH
VL: B2 VL with I2V
notes: Humanized RR variant
B12: 1D9 H0L9 RR antibody (antibody, V domains shown)
VH: B1 VH with K67R, L70M, V72R, G98R
VL: B3 VL with R50K, R51L
notes: Humanized RR variant; also called 1D9 HOL9 RR antibody
B13: 15D5 H3L1 antibody (antibody, V domains shown)
VH: QVQLVQSGAEVKKPGASVKVSCKASGYTFTDYNMNWVRQAPGQGLEWMGGINPNYGTTVYNQKFKGKATLTVDQSISTAYMELSRLRSDDTAVYYCARMTTIVPFDYWGQGTTVTVSS
VL: DIQMTQSPSSLSASVGDRVTITCRASQDISNYLNWYQQKPGKAPKLLIYYTSTLHSGVPSRFSGSGSGTDYTFTISSLQPEDIATYYCQQGYTLPWTFGGGTKVEIKR
notes: Humanized 15D5 variant
B14: 15D5 H3L3 antibody (antibody, V domains shown)
VH: B13 VH
VL: B13 VL with Y71F, F73L, I83F, G100Q, V104L
notes: also called 15D5 H31.3 antibody
B15: 15D5 H2L2 antibody (antibody, V domains shown)
VH: B13 VH with R38K, M48I
VL: B13 VL with F73L, I83F, G100Q, V104L
notes: Humanized 15D5 variant
B16: 15D5 H2L1 antibody (antibody, V domains shown)
VH: B13 VH with R38K, M48I
VL: B13 VL
notes: Humanized 15D5 variant
B17: 15D5 H4L3 (antibody, V domains shown)
VH: B13 VH with A68V, Q74T
VL: B13 VL with Y71F, F73L, I83F, G100Q, V104L
notes: To be rechecked
B18: 15D5 H1L1 antibody (antibody, V domains shown)
VH: B13 VH with V2F, T28S, R38K, M48I
VL: B13 VL
B19: 15D5 H1L3 antibody (antibody, V domains shown)
VH: B13 VH with V2F, T28S, R38K, M48I
VL: B13 VL with Y71F, F73L, I83F, G100Q, V104L
notes: Humanized 15D5 variant; also called 15D5 HIL3 antibody

target: T1, Full-length human HER3 extracellular domain (ECD) (human, UniProt P21860 20-643); experiment: affinity summary table, method not given
T1 construct: also called human HER3 ECD; HER-3 ECD full length
T1 sequence (P21860 20-643): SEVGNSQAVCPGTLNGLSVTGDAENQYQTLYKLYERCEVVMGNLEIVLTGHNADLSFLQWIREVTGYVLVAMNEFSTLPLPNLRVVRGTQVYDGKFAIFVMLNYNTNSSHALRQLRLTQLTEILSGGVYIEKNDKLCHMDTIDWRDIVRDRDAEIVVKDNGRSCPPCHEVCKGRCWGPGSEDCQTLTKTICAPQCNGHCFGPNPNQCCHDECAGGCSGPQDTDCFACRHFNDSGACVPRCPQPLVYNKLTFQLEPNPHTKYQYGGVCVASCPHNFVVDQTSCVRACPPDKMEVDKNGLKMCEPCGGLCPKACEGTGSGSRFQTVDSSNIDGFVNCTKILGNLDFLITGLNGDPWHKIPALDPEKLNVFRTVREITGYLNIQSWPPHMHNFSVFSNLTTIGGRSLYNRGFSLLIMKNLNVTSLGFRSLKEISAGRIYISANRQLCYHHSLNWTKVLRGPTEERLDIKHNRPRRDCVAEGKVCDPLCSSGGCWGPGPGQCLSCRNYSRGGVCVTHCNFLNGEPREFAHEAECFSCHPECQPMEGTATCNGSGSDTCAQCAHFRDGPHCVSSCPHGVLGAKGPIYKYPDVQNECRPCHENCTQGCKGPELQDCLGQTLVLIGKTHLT

| Kd | Binder |
| --- | --- |
| 4.1 nM | B1 |

target: T2, Human HER3 ECD domain III (human, UniProt P21860 330-495); experiment: affinity summary table, method not given
T2 construct: also called D3; Domain 3
T2 sequence (P21860 330-495): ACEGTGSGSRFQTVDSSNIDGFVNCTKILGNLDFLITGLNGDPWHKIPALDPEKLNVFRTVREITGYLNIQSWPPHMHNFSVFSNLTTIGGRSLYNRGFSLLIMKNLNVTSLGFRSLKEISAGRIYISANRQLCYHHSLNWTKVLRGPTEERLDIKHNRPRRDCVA

| Kd | Binder |
| --- | --- |
| 0.018 nM | B1 |

target: T1, Full-length human HER3 extracellular …; experiment: BIACORE 3000 SPR, mAb captured by anti-human Fc, ECD as analyte, 25 C
Method: The binding kinetics of these antibodies for was assessed using a BIACORE™ 3000. Antibodies were captured on a CM5 biosensor chip to which an immobilized anti-human IgG (Fc specific) BIACORE™ (GE Healthcare cat# BR-1008-39) monoclonal antibody had been conjugated using supplied coupling buffer (9000 RU). Full-length human HER3 ECD concentrations were injected for 120s at a flow rate of 30 ul/min. Biosensor chips were regenerated as described in Example 1. Kinetics were determined by global fitting of data to the 1:1 Langmuir model using BIACORE™ Evaluation software. Analytical runs were carried out at 25° C. using FIBS-EP as the running buffer.
Buffer cycle and double referencing were performed as described in Example 1; and 5) Regenerate biosensor chips with BIACORE™ optimized buffers.

| Kd | koff | kon | Binder |
| --- | --- | --- | --- |
| 7.51 nM | 0.00366 s⁻¹ | 487000 M⁻¹ s⁻¹ | B2 |
| 59.5 nM | 0.00195 s⁻¹ | 32700 M⁻¹ s⁻¹ | B3 |
| 13.4 nM | 0.00444 s⁻¹ | 331000 M⁻¹ s⁻¹ | B4 |
| 59.4 nM | 0.00316 s⁻¹ | 53300 M⁻¹ s⁻¹ | B5 |
| 6.87 nM | 0.00371 s⁻¹ | 540000 M⁻¹ s⁻¹ | B6 |
| 7.89 nM | 0.0041 s⁻¹ | 519000 M⁻¹ s⁻¹ | B7 |
| 3.35 nM | 0.00223 s⁻¹ | 665000 M⁻¹ s⁻¹ | B8 |
| 95.8 nM | 0.00292 s⁻¹ | 30400 M⁻¹ s⁻¹ | B9 |
| 7.02 nM | 0.00487 s⁻¹ | 694000 M⁻¹ s⁻¹ | B10 |
| 3.96 nM | 0.0017 s⁻¹ | 430000 M⁻¹ s⁻¹ | B1 |
| 3.91 nM | 0.00302 s⁻¹ | 773000 M⁻¹ s⁻¹ | B11 |
| 38.1 nM | 0.0144 s⁻¹ | 377000 M⁻¹ s⁻¹ | B12 |
| 4.21 nM | 0.000171 s⁻¹ | 40500 M⁻¹ s⁻¹ | B13 |
| 8.72 nM | 0.000367 s⁻¹ | 42100 M⁻¹ s⁻¹ | B14 |
| 12.8 nM | 0.00407 s⁻¹ | 317000 M⁻¹ s⁻¹ | B15 |
| 8.7 nM | 0.000365 s⁻¹ | 41900 M⁻¹ s⁻¹ | B16 |
| 24.7 nM | 0.000935 s⁻¹ | 37900 M⁻¹ s⁻¹ | B17 |
| 7.19 nM | 0.000267 s⁻¹ | 37100 M⁻¹ s⁻¹ | B18 |
| 10 nM | 0.000345 s⁻¹ | 34400 M⁻¹ s⁻¹ | B19 |
